According to patent US20230391882A1 (NUMAB THERAPEUTICS, published 2023):

Legend:
[1] = biological target: soluble mesothelin (sMSLN) (UniProt Q13421 296-580, limits assumed); assay: cell-based or functional assay
[2] = biological target: T1, mesothelin (MSLN) on target cells (H226, MeT-5A) (UniProt Q13421 37-598, limits assumed); assay: cell-based or functional assay
[3] = biological target: T1, mesothelin (MSLN) on target cells …; assay: cell-based or functional assay; remark: listed apart in the source
[4] = biological target: T1, mesothelin (MSLN) on target cells …; assay: cell-based or functional assay; remark: listed apart in the source
[5] = biological target: T1, mesothelin (MSLN) on target cells …; assay: cell-based or functional assay; remark: listed apart in the source
[6] = biological target: T1, mesothelin (MSLN) on target cells …; assay: cell-based or functional assay; remark: listed apart in the source
[7] = biological target: T1, mesothelin (MSLN) on target cells …; assay: cell-based or functional assay; remark: listed apart in the source
[8] = biological target: T1, mesothelin (MSLN) on target cells …; assay: cell-based or functional assay; remark: listed apart in the source
[9] = biological target: T1, mesothelin (MSLN) on target cells …; assay: cell-based or functional assay; remark: listed apart in the source
[10] = biological target: recombinant human mesothelin (human MSLN) (human, UniProt Q13421 296-580, limits assumed); assay: KD ratio told in running text; method not given
[11] = biological target: T1, mesothelin (MSLN) on target cells …; assay: cell-based or functional assay; remark: listed apart in the source

B1: PRO1872 (MSLN x CD3 x hSA) (54-22-H03-sc01 scFv/28-21-D09-sc04 scDb-i/23-13-A01-sc02 diS scDb-o) (other)
chain: DVVMTQSPSSLSASVGDRVTITCQASQIISSRSAWYQQKPGQPPKLLIYQASKLASGVPSRFSGSGSGTDFTLTISSLQPEDFATYYCQCTYIDSNFGAFGCGTKLTVLGGGGGSEVQLVESGGGLVQPGGSLRLSCAASGFSLSSYDMSWVRQAPGKGLAWIGASYASGPTYYASWAKGRFTISRDNSKNTVYLQMNSLRAEDTATYFCARGGWTGTSHSNIWGQGTLVTVSSGGGGSGGGGSGGGGSGGGGSDIQMTQSPSSLSASVGDRVTITCQSSQSVFSNNYLAWFQQKPGQSPKRLIYSASTLASGVPSRFSGSGSGTDFTLTISSLQPEDFATYYCLGSYACSSADCYVFGTGTKVTVLGGGGGSEVQLVESGGGLVQPGGSLRLSCAASGFSFSSSYWICWVRQAPGKCLEWVGCVFTGDGTTYYASWAKGRFTISRDNSKNTVYLQMNSLRAEDTATYFCARPVSVYYYGMDLWGQGTLVTVSSGGGGSGGGGSDIQMTQSPSSLSASVGDRVTITCQASESIGNYLAWYQQKPGKAPKLLIYSASTLASGVPSRFSGSGSGTDFTLTISSLQPEDFATYYCQSTDYGDSYIFGTGTKVTVLGGGGGSGGGGSGGGGSGGGGSEVQLVESGGGLVQPGGSLRLSCAASGISVSNDYYMCWVRQAPGKGLEWIGCISTYIGNTHYASWAKGRFTISRDNSKNTVYLQMNSLRAEDTAVYYCAKNAGYPGYRYAIDLWGQGTLVTVSS
notes: also called MSLNlowKDxCD3xhSA
increase of EC50 for killing high MSLN expressing target cells in the presence of 50 ng/ml sMSLN [1]: ~8 fold
increase of EC50 for killing high MSLN expressing target cells in the presence of 500 ng/ml sMSLN [1]: > 75 fold
EC50 (read off the curve); specific killing of H226 cells, in presence of 50 ng/ml sMSLN [2]: ~0.6 nM
EC50 (read off the curve); specific killing of H226 cells, in presence of 500 ng/ml sMSLN [3]: ~5 nM
EC50 (read off the curve); specific killing of H226 cells, no sMSLN [4]: ~0.05 nM
EC50 (read off the curve); activated CD8+ cells (CD69+) with H226 cells, without sMSLN [5]: ~0.02 nM
EC50 (read off the curve); activated CD8+ cells (CD69+) with H226 cells, with 50 ng/ml sMSLN [6]: ~0.2 nM
EC50 (read off the curve); activated CD8+ cells (CD69+) with H226 cells, with 500 ng/ml sMSLN [7]: ~1 nM
EC50 (read off the curve); activated CD8+ cells (CD69+) with MeT-5A cells (low MSLN) [8]: ~0.01 nM
EC50 (read off the curve); specific killing of MeT-5A cells (low MSLN) [9]: ~0.01 nM
fold better binding affinity (KD) than the MSLN-BDs of PRO2000, PRO2562, PRO2566 and PRO2567 [10]: > 5 fold
EC50 (read off the curve); specific killing of H226 cells (high MSLN) [11]: ~0.005 nM
